Assay results from paper PMC4476739 (PLoS ONE, 2015).

What was measured:
Experiment in all cases: BLI; fortéBio Octet Red384; RSV F variant captured on motavizumab IgG loaded on anti-human Fc probes; Fab in solution 0.007 to 0.5 μM; 30°C; PBS + 1% BSA; 1:1 fit
Settings in all cases: both partners purified
[1] = molecular target: T1, DS-Cav1 3-BCD, foldon removed (Human respiratory syncytial virus A, …, S155C | S290C | S190F | V207L | G519C (stands in the printed letters) | K520C …)
T1 construct: RSV F glycoprotein, F1 subunit from its N-terminus to residue 511, with the DS (S155C-S290C) and Cav1 (S190F, V207L) mutations; RSV F α10 helix from residue 512 with rings B and C; added stretch that duplicates part of the coiled-coil; ring D at 533C-534C; Gly-Gly linker and LVPR of the thrombin site, left after cleavage; trimeric species purified after foldon removal; also called rings BCD …

[2] = molecular target: T2, DS-Cav1 4-BCDE, foldon removed (Human respiratory syncytial virus A, …, S155C | S290C | S190F | V207L | G519C (stands in the printed letters) | K520C …)
T2 construct: RSV F glycoprotein, F1 subunit from its N-terminus to residue 511, with the DS (S155C-S290C) and Cav1 (S190F, V207L) mutations; RSV F α10 helix from residue 512 with rings B and C; added stretch based on the α10 heptad repeat; ring D at 533C-534C and ring E at 540C-541C; Gly-Gly linker and LVPR of the thrombin site, left after cleavage; trimeric species purified after foldon removal; also called …

[3] = molecular target: T3, DS-Cav1 5-ABCDE, foldon removed (Human respiratory syncytial virus A, …, S155C | S290C | S190F | V207L | L512C (stands in the printed letters) | L513C …)
T3 construct: RSV F glycoprotein, F1 subunit from its N-terminus to residue 511, with the DS (S155C-S290C) and Cav1 (S190F, V207L) mutations; RSV F α10 helix from residue 512 with rings A, B and C; added stretch based on the α10 heptad repeat; ring D at 533C-534C and ring E at 540C-541C; Gly-Gly linker and LVPR of the thrombin site, left after cleavage; trimeric species purified after foldon removal; also …

[4] = molecular target: T4, DS-Cav1 4-ABCD, foldon removed (Human respiratory syncytial virus A, …, S155C | S290C | S190F | V207L | L512C (stands in the printed letters) | L513C …)
T4 construct: RSV F glycoprotein, F1 subunit from its N-terminus to residue 511, with the DS (S155C-S290C) and Cav1 (S190F, V207L) mutations; RSV F α10 helix from residue 512 with rings A, B and C; added stretch that duplicates part of the coiled-coil; ring D at 533C-534C; Gly-Gly linker and LVPR of the thrombin site, left after cleavage; trimeric species purified after foldon removal; also called Rings ABCD; …

[5] = molecular target: T5, DS-Cav1 2-AB, foldon removed (Human respiratory syncytial virus A, …, S155C | S290C | S190F | V207L | L512C (stands in the printed letters) | L513C …)
T5 construct: RSV F glycoprotein, F1 subunit from its N-terminus to residue 511, with the DS (S155C-S290C) and Cav1 (S190F, V207L) mutations; RSV F α10 helix from residue 512 with rings A and B; Gly-Gly linker and LVPR of the thrombin site, left after cleavage; trimeric species purified after foldon removal; also called Rings AB; rings AB without foldon; source: Expi293F, transient transfection, purified from …

B1: D25 antigen binding fragment (Fab) (Fab, V domains shown)
VH: QVQLVQSGAEVKKPGSSVMVSCQASGGPLRNYIINWLRQAPGQGPEWMGGIIPVLGTVHYAPKFQGRVTITADESTDTAYIHLISLRSEDTAMYYCATETALVVSTTYLPHYFDNWGQGTLVTVSS
VL: DIQMTQSPSSLSAAVGDRVTITCQASQDIVNYLNWYQQKPGKAPKLLIYVASNLETGVPSRFSGSGSGTDFSLTISSLQPEDVATYYCQQYDNLPLTFGGGTKVEIK
notes: Fab in solution in the Octet assays; also called site Ø-specific antibody D25
Kd [1]: 0.38 nM | Kd [2]: 0.33 nM | Kd [3]: 0.47 nM | Kd [4]: 0.32 nM | Kd [5]: 0.21 nM
